For data set [1], the target named is VieS-C (untagged cytoplasmic portion of the sensor kinase VieS) (UniProt O68317). Nature of the data set: SEC-MALS; Superose12 10/300 GL in Gel Filtration Buffer (25 mM Tris pH 7.5, 100 mM KCl, 1 mM DTT, 5% glycerol); column at 4°C, light scattering at 25°C; self-association of each protein.
Data set [2] has the same target. Description: composition-gradient MALS (CG-MALS).
Data set [3] concerns the molecule itself. Description: SEC-MALS; Superose12 10/300 GL in Gel Filtration Buffer (25 mM Tris pH 7.5, 100 mM KCl, 1 mM DTT, 5% glycerol); column at 4°C, light scattering at 25°C; self-association of each protein.

Turning to “VieS-C (untagged cytoplasmic portion of the sensor kinase VieS) (from UniProt O68317 1-1146) (domain or fragment)”, the stoichiometry N (commonly a count of units in the complex or per binding partner) in data set [1] was found to be 2.

B1: VieB (wild type, His6 tag removed) (natural protein)
chain: MAVPTFAELKVLIIDDAPIVIASLRSMLLKLGFTDPNIVWSKSPRAAVFMAGRQRFDIFICDYNFGKGLNGKQVFEELKHYKLIKQDAVFVLVTGENSAYVVHSILELKPDEYILKPFNIMTLQERLTNAISRKHALKALYQAERDGDAELGLSLCDELEPFYNDYYFVIQKFRGEFLTQLRRFDHAREVYLETLEHKDFDWAKIGLANALKQTGRQVEATQVIQELLASAPNNVRARVEAASISLCNNSIPEAIHHLQVANQIVPGHSEREWVLANLCLSVGDGASALERYRLYVEINKETYRNNHQMHLNFIRTLLYAARQAESEQRDLWVQEAKSILKGLYDKGQHEDLLAQLELVAAHLAMEEGEFGVSVEILNKIYRAKPFELFEDRYHFTWLLNVMGFDSEFAKCISWCNGTLLNQETDIVLESKVALAKALKEANQEKLQWLEQRYHALCNKQQTIDSLLAIYIEILEKCPTLRTVCMKVVTIFSRYWPTALTESEAERLLKSCHRTIRQLMNEEELQQAQYAELYRKALTFRSRYRLQRTESVEA
For the molecule B1, in data set [2], the Kd (in general, the free concentration of one partner at which half of the binding sites on the other are occupied at equilibrium, for simple one-to-one binding) was 467 nM and the stoichiometry N (VieB monomer per VieS-C dimer) is 1.

B2: VieA-His6 (response regulator VieA) (natural protein)
chain: MKIMIVEDDRIQATSLKLKLRQLGLDDVILAENGFAALELCNKVGIDLMFCDIRMPQMDGISLLSQLSLQAPKLGVVILSAVEDTILELTHNMCSLAGFAYVDRLPKPYEVEDLQRVVEGFQKQTEPETSHKPAITLTCDEIEQAFLHDHIFNYYQPQFDFRSGAMVGVEALVRYEHPTHGMLSPAVFLPLIEQCGLHEKLFLTVLEKSVSALASIGADLQLSVNISQRNLQHSICDPILAICERYGFPASKLTLEMTEHEVYNGTPTSLANLARLRMYGVGLSIDDFGTGYASLGQLAQLPFTELKIDRSFVHDLATNYKHQQLTNMCLLLAQSLGLHCVVEGVENEETWQYLRQLGVDTCQGYYAAKPMPIAQLSELYTKNRRQCLGCQSMDDGWQILLVDNHMLSATALQKVLNKEENVSKVFVAQDIEQTLHKLRDLPINLLVVESRFLSTISPAAFHELLEPYYRGALLVLHDGLTAEAQEDEPKAIVVKANTLMETSSRILLQAQQSNVRPQAQQEELAQLSERELTVAKMLVEGLTNKEIALQLDINQKTVSTYKTRIMTKLGIKSAMELVRFVTLK
notes: not shown: His6, C-terminal, kept
For the molecule B2, the “stoichiometry N” value in data set [3] worked out at 2. For the same molecule, in data set [2], the Kd was 1380 nM and the stoichiometry N (VieA-His6 dimer per VieS-C dimer) turned out to be 1.
